{"source": "paper PMC11046469", "about": "“Leveraging a Phage-Encoded Noncanonical Amino Acid: A Novel Pathway to Potent and Selective Epigenetic Reader Protein Inhibitors” (ACS Central Science, 2024)", "data": [{"molecular_target": "T1, ENL YEATS domain (AviSUMO-ENL YEATS) (Homo sapiens, UniProt Q03111)", "T1 construct": "encoding ENL YEATS (aa 1−148) was cloned in pET28a-; made in house; host or cells: E. coli BL21(DE3pLysS), co-expressed with BirA (pBirAcm)", "T1 sequence (Q03111 1-148)": "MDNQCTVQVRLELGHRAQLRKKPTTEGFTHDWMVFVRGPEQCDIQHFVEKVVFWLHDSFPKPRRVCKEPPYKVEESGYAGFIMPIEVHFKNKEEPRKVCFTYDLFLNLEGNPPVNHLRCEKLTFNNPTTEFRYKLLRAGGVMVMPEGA", "experiment": "Phage panning of BuK-containing 7-mer library against AviSUMO-ENL YEATS with Illumina NGS abundance", "conditions": "sheet ENLR3: round 3 of panning against ENL YEATS; TAG = amber codon (BuK); 7-mer library positions V1-V7", "in_short": "(§1)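 Phage displaying BuK-containing amber-obligate 7-mer peptides, made with 5 mM BuK, was panned against biotinylated AviSUMO-ENL YEATS on streptavidin beads with washes of rising stringency. Rounds 1 and 3 were sequenced by Illumina NGS, and sequences with mismatches were filtered out before copy-number abundance was counted.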", "units": {"percent (share of sequence reads)": "%"}, "values": [{"substance": "WWVFDATAG", "n (number of NGS reads of the unique amino acid sequence)": 10, "percent (share of sequence reads)": 0.009106}, {"substance": "WWVIETAGG", "n (number of NGS reads of the unique amino acid sequence)": 4, "percent (share of sequence reads)": 0.003642}, {"substance": "YAIYCYTAG", "n (number of NGS reads of the unique amino acid sequence)": 7, "percent (share of sequence reads)": 0.006374}, {"substance": "YDAYCYTAG", "n (number of NGS reads of the unique amino acid sequence)": 11, "percent (share of sequence reads)": 0.01002}, {"substance": "YDDYCYTAG", "n (number of NGS reads of the unique amino acid sequence)": 2, "percent (share of sequence reads)": 0.001821}, {"substance": "YDFYCYTAG", "n (number of NGS reads of the unique amino acid sequence)": 51, "percent (share of sequence reads)": 0.04644}, {"substance": "YDIYCYTAG", "n (number of NGS reads of the unique amino acid sequence)": 3, "percent (share of sequence reads)": 0.002732}, {"substance": "YDLYCYTAG", "n (number of NGS reads of the unique amino acid sequence)": 3, "percent (share of sequence reads)": 0.002732}, {"substance": "YDVCCYTAG", "n (number of NGS reads of the unique amino acid sequence)": 6, "percent (share of sequence reads)": 0.005464}, {"substance": "YDVFCYTAG", "n (number of NGS reads of the unique amino acid sequence)": 8, "percent (share of sequence reads)": 0.007285}, {"substance": "YDVHCYTAG", "n (number of NGS reads of the unique amino acid sequence)": 5, "percent (share of sequence reads)": 0.004553}, {"substance": "YDVYCCTAG", "n (number of NGS reads of the unique amino acid sequence)": 5, "percent (share of sequence reads)": 0.004553}, {"substance": "YDVYCFTAG", "n (number of NGS reads of the unique amino acid sequence)": 2, "percent (share of sequence reads)": 0.001821}, {"substance": "YDVYCHTAG", "n (number of NGS reads of the unique amino acid sequence)": 13, "percent (share of sequence reads)": 0.01184}, {"substance": "YDVYCNTAG", "n (number of NGS reads of the unique amino acid sequence)": 3, "percent (share of sequence reads)": 0.002732}, {"substance": "YDVYCTAGTAG", "n (number of NGS reads of the unique amino acid sequence)": 3, "percent (share of sequence reads)": 0.002732}, {"substance": "YDVYCYL", "n (number of NGS reads of the unique amino acid sequence)": 2, "percent (share of sequence reads)": 0.001821}, {"substance": "YDVYCYQ", "n (number of NGS reads of the unique amino acid sequence)": 15, "percent (share of sequence reads)": 0.01366}, {"substance": "YDVYCYTAG", "n (number of NGS reads of the unique amino acid sequence)": 60611, "percent (share of sequence reads)": 55.1932}, {"substance": "YDVYCYW", "n (number of NGS reads of the unique amino acid sequence)": 26, "percent (share of sequence reads)": 0.02368}, {"substance": "YDVYCYY", "n (number of NGS reads of the unique amino acid sequence)": 26, "percent (share of sequence reads)": 0.02368}, {"substance": "YDVYFYTAG", "n (number of NGS reads of the unique amino acid sequence)": 47, "percent (share of sequence reads)": 0.0428}, {"substance": "YDVYRYTAG", "n (number of NGS reads of the unique amino acid sequence)": 9, "percent (share of sequence reads)": 0.008196}, {"substance": "YDVYSYTAG", "n (number of NGS reads of the unique amino acid sequence)": 3, "percent (share of sequence reads)": 0.002732}, {"substance": "YDVYWYTAG", "n (number of NGS reads of the unique amino acid sequence)": 3, "percent (share of sequence reads)": 0.002732}, {"substance": "YDVYYYTAG", "n (number of NGS reads of the unique amino acid sequence)": 7, "percent (share of sequence reads)": 0.006374}, {"substance": "YEVYCYTAG", "n (number of NGS reads of the unique amino acid sequence)": 2, "percent (share of sequence reads)": 0.001821}, {"substance": "YGVYCYTAG", "n (number of NGS reads of the unique amino acid sequence)": 13, "percent (share of sequence reads)": 0.01184}, {"substance": "YHVYCYTAG", "n (number of NGS reads of the unique amino acid sequence)": 2, "percent (share of sequence reads)": 0.001821}, {"substance": "YLYTAGFPC", "n (number of NGS reads of the unique amino acid sequence)": 5, "percent (share of sequence reads)": 0.004553}, {"substance": "YLYTAGVPC", "n (number of NGS reads of the unique amino acid sequence)": 1006, "percent (share of sequence reads)": 0.9161}, {"substance": "YLYYVPC", "n (number of NGS reads of the unique amino acid sequence)": 6, "percent (share of sequence reads)": 0.005464}, {"substance": "YNVYCYTAG", "n (number of NGS reads of the unique amino acid sequence)": 10, "percent (share of sequence reads)": 0.009106}, {"substance": "YVGPWTAGG", "n (number of NGS reads of the unique amino acid sequence)": 41, "percent (share of sequence reads)": 0.03734}, {"substance": "YVVYCYTAG", "n (number of NGS reads of the unique amino acid sequence)": 4, "percent (share of sequence reads)": 0.003642}, {"substance": "YYVYCYTAG", "n (number of NGS reads of the unique amino acid sequence)": 38, "percent (share of sequence reads)": 0.0346}]}, {"molecular_target": "T1, ENL YEATS domain (AviSUMO-ENL YEATS)", "experiment": "Phage panning of BuK-containing 7-mer library against AviSUMO-ENL YEATS with Illumina NGS abundance", "conditions": "sheet ENLR3: round 3 of selection against ENL YEATS; TAG = amber codon (BuK)", "in_short": "as §1", "units": {"percent (share of NGS reads of the 7-mer sequence V1-V7)": "%"}, "values": [{"substance": "WWVLVTAGS", "n (number of NGS reads of the 7-mer sequence V1-V7)": 1, "percent (share of NGS reads of the 7-mer sequence V1-V7)": 0.0009106}, {"substance": "YAVYCYTAG", "n (number of NGS reads of the 7-mer sequence V1-V7)": 1, "percent (share of NGS reads of the 7-mer sequence V1-V7)": 0.0009106}, {"substance": "YDGPWTAGG", "n (number of NGS reads of the 7-mer sequence V1-V7)": 1, "percent (share of NGS reads of the 7-mer sequence V1-V7)": 0.0009106}, {"substance": "YDGYCYTAG", "n (number of NGS reads of the 7-mer sequence V1-V7)": 1, "percent (share of NGS reads of the 7-mer sequence V1-V7)": 0.0009106}, {"substance": "YDVYCSTAG", "n (number of NGS reads of the 7-mer sequence V1-V7)": 1, "percent (share of NGS reads of the 7-mer sequence V1-V7)": 0.0009106}, {"substance": "YDVYCYE", "n (number of NGS reads of the 7-mer sequence V1-V7)": 1, "percent (share of NGS reads of the 7-mer sequence V1-V7)": 0.0009106}, {"substance": "YDVYCYK", "n (number of NGS reads of the 7-mer sequence V1-V7)": 1, "percent (share of NGS reads of the 7-mer sequence V1-V7)": 0.0009106}, {"substance": "YGTAGHDFF", "n (number of NGS reads of the 7-mer sequence V1-V7)": 1, "percent (share of NGS reads of the 7-mer sequence V1-V7)": 0.0009106}, {"substance": "YLDDTAGLH", "n (number of NGS reads of the 7-mer sequence V1-V7)": 1, "percent (share of NGS reads of the 7-mer sequence V1-V7)": 0.0009106}, {"substance": "YLTLFTAGG", "n (number of NGS reads of the 7-mer sequence V1-V7)": 1, "percent (share of NGS reads of the 7-mer sequence V1-V7)": 0.0009106}, {"substance": "YLYLVPC", "n (number of NGS reads of the 7-mer sequence V1-V7)": 1, "percent (share of NGS reads of the 7-mer sequence V1-V7)": 0.0009106}, {"substance": "YLYTAGAPC", "n (number of NGS reads of the 7-mer sequence V1-V7)": 1, "percent (share of NGS reads of the 7-mer sequence V1-V7)": 0.0009106}, {"substance": "YLYTAGVHC", "n (number of NGS reads of the 7-mer sequence V1-V7)": 1, "percent (share of NGS reads of the 7-mer sequence V1-V7)": 0.0009106}, {"substance": "YLYTAGVPF", "n (number of NGS reads of the 7-mer sequence V1-V7)": 1, "percent (share of NGS reads of the 7-mer sequence V1-V7)": 0.0009106}, {"substance": "YLYVTAGAC", "n (number of NGS reads of the 7-mer sequence V1-V7)": 1, "percent (share of NGS reads of the 7-mer sequence V1-V7)": 0.0009106}, {"substance": "YPCVCFTAG", "n (number of NGS reads of the 7-mer sequence V1-V7)": 1, "percent (share of NGS reads of the 7-mer sequence V1-V7)": 0.0009106}, {"substance": "YRWVFSF", "n (number of NGS reads of the 7-mer sequence V1-V7)": 1, "percent (share of NGS reads of the 7-mer sequence V1-V7)": 0.0009106}, {"substance": "YVCPWTAGG", "n (number of NGS reads of the 7-mer sequence V1-V7)": 1, "percent (share of NGS reads of the 7-mer sequence V1-V7)": 0.0009106}, {"substance": "YVGPLTAGG", "n (number of NGS reads of the 7-mer sequence V1-V7)": 1, "percent (share of NGS reads of the 7-mer sequence V1-V7)": 0.0009106}, {"substance": "YWTAGCARV", "n (number of NGS reads of the 7-mer sequence V1-V7)": 1, "percent (share of NGS reads of the 7-mer sequence V1-V7)": 0.0009106}]}]}
